B4: Clr3 (untagged) (enzyme, S. pombe, UniProt P56523 1-687, looked up)
chain: MLASNSDGASTSVKPSDDAVNTVTPWSILLTNNKPMSGSENTLNNESHEMSQILKKSGLCYDPRMRFHATLSEVDDHPEDPRRVLRVFEAIKKAGYVSNVPSPSDVFLRIPAREATLEELLQVHSQEMYDRVTNTEKMSHEDLANLEKISDSLYYNNESAFCARLACGSAIETCTAVVTGQVKNAFAVVRPPGHHAEPHKPGGFCLFNNVSVTARSMLQRFPDKIKRVLIVDWDIHHGNGTQMAFYDDPNVLYVSLHRYENGRFYPGTNYGCAENCGEGPGLGRTVNIPWSCAGMGDGDYIYAFQRVVMPVAYEFDPDLVIVSCGFDAAAGDHIGQFLLTPAAYAHMTQMLMGLADGKVFISLEGGYNLDSISTSALAVAQSLLGIPPGRLHTTYACPQAVATINHVTKIQSQYWRCMRPKHFDANPKDAHVDRLHDVIRTYQAKKLFEDWKITNMPILRDSVSNVFNNQVLCSSNFFQKDNLLVIVHESPRVLGNGTSETNVLNLNDSLLVDPVSLYVEWAMQQDWGLIDINIPEVVTDGENAPVDILSEVKELCLYVWDNYVELSISKNIFFIGGGKAVHGLVNLASSRNVSDRVKCMVNFLGTEPLVGLKTASEEDLPTWYYRHSLVFVSSSNECWKKAKRAKRRYGRLMQSEHTETSDMMEQHYRAVTQYLLHLLQKARPTSQ
notes: Clr3, histone deacetylase, S. pombe; source: E. coli Rosetta, purified (Ni-NTA, Ulp1 digestion, Superdex); not shown: 6*His-Sumo, N-terminal, cleaved

Legend:
Conditions in all cases: both partners purified
[1] = molecular target: T1, S. pombe H2AB fusion protein (H2B_(32-126)-H2A_(15-108)) (S. pombe, UniProt P04913 32-126; P04909 15-108); assay: ITC; MicroCal ITC200, 20 °C; 25 mM Tris-HCl pH 8.0, 400 mM NaCl, 2 mM DTT; Sad1 (500 μM) titrated into H2AB (50 μM)
T1 construct: histone H2A, S. pombe, residues 15-108; No linker between the two parts is told; Modified pCDF-Duet vector, His tag followed by a 3C site; also called single-chain fusion of H2A and H2B; H2A-H2B fusion protein; source: E. coli Rosetta, purified (3C digestion, Superdex); not shown: 6*His, N-terminal, cleaved
T1 sequence (P04913 other isoform, or with tags, fused parts or gaps): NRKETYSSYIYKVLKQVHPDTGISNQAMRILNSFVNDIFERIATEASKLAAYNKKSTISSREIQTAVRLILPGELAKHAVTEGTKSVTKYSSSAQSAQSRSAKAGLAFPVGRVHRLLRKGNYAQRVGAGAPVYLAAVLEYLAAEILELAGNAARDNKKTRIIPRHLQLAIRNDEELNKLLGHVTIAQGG

[2] = molecular target: T2, GST-Sad1_(1-169) with H2AB (Sad1-H2AB complex of the pull-downs) (S. pombe, UniProt Q09825 1-169; P04913 32-126; P04909 15-108); assay: pull-down; GST-Sad1_(1-169) on glutathione beads with silencing factors in the presence of H2AB; same buffer as the histone pull-downs
T2 construct: histone H2A, S. pombe, residues 15-108; m1 with m5; source: E. coli Rosetta, purified proteins mixed; not shown: GST, N-terminal, kept; 6*His, N-terminal, cleaved
T2 sequence (P04913 other isoform, or with tags, fused parts or gaps): as above

Clr3 (untagged) = molecular target: B4; assay: pull-down; GST-Sad1_(1-169) on glutathione beads with Sumo-Sir2 or untagged Clr3, in the absence of H2AB; same buffer as the histone pull-downs
FITC labeled Clr3 = molecular target: T3, FITC labeled Clr3 (S. pombe, UniProt P56523 1-687, FITC label); assay: MST; Monolith NT.115; 25 mM HEPES pH 7.5, 150 mM NaCl, 2 mM DTT; 20 nM FITC labeled Clr3; ligands (500 μM Sad1_(1-169) or 250 μM Sad1_(1-169)-H2AB complex) diluted by 12 gradients; medium MST power, 80% LED
T3 construct: Clr3, histone deacetylase, S. pombe; source: E. coli Rosetta, purified, labeled with the EZLabel Protein FITC Labeling Kit
T3 sequence (looked up): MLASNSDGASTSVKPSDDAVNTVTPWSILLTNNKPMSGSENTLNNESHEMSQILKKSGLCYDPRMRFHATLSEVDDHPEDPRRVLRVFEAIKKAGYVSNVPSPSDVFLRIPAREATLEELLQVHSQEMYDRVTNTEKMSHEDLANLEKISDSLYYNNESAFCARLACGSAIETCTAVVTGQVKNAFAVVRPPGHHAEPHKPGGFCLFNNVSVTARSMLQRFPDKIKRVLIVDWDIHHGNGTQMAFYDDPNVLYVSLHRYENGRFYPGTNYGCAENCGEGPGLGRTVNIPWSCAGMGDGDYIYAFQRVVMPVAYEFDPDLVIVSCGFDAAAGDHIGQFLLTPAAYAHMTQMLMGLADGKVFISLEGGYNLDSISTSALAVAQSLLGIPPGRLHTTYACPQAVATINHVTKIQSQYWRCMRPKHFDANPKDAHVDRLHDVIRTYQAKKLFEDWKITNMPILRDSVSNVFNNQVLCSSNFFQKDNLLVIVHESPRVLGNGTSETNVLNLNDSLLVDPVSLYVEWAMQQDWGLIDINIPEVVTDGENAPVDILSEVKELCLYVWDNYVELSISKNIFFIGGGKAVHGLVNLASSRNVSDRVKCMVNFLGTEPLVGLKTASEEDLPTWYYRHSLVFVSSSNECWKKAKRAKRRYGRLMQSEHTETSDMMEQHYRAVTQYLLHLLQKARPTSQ

B1: Sad1_(60-169) (domain or fragment, S. pombe, UniProt Q09825 60-169, looked up)
chain: ESITPKQRFPAPNFEQAYHSNIRYEQEESDNEEFENVVKNGHEASTNVFYESDGDDEEFVNEEYENSIDEESDDEGYSLNEDTTATNASFRYPMNQRSTRKSQFYSSKFK
notes: source: E. coli Rosetta, purified; not shown: GST, N-terminal, cleaved
Question: Does B1 bind [1]?
Answer: binds

B2: Sad1_(60-169) with charge-reverse mutations of D114 and E117 (domain or fragment)
chain: ESITPKQRFPAPNFEQAYHSNIRYEQEESDNEEFENVVKNGHEASTNVFYESDGRDERFVNEEYENSIDEESDDEGYSLNEDTTATNASFRYPMNQRSTRKSQFYSSKFK
Question: Which “fold decrease of binding affinity against wild-type Sad1_(60-169)” value [1] does the source give for B2 here?
Answer: 5.6 fold

B3: Sad1_(60-169) F118A (domain or fragment, S. pombe, UniProt Q09825 60-169, looked up)
chain: ESITPKQRFPAPNFEQAYHSNIRYEQEESDNEEFENVVKNGHEASTNVFYESDGDDEEAVNEEYENSIDEESDDEGYSLNEDTTATNASFRYPMNQRSTRKSQFYSSKFK
notes: also called Sad1 F118A; source: E. coli Rosetta, purified; not shown: GST, N-terminal, cleaved
Question: Does B3 bind [1]?
Answer: binds

Question: Does B4 bind [2]?
Answer: binds

B5: Sumo-Sir2 fusion protein (enzyme, S. pombe, UniProt O94640 1-475, looked up)
chain: MASNPLDNNMPTTPVEEKIPVASYSPSSSGSSSGASLLVDIMCGSKETEDEEVDSDEWDKPETENISDLDERSEMVRYLRASGYAKFLEKYLIEEELPVRSILKKLGINLPSALEEFEDIDLLPLLKEVLKREVARRIKLPHFNTFEDVVNLLKKAKNVVVLVGAGISTSLGILDFRSDNGFYARLARHGLSEPSEMFDIHTFRENPEIFYTFARDLLPETNHYSPSHAFIRLLEKKNKLSTLFTQNIDNLEKKTGLSDNKIIQCHGSFATATCIKCKHKVDGSELYEDIRNQRVSYCNECGKPPLKLRRVGQNKKEKHYFSDGDSESSEDDLAQPGIMKPDITFFGEALPDSFFNKVGSGELEETDLLICIGTSLKVAPVSELISVIPPTTPQIYISRTPVRHTQFDVNFLSPYCDWVIVEICKRAGWLNELQALCDLPECHSGSKTRAFETDLDIKFEEPSTYHITSTTNGSC
notes: Sir2, histone deacetylase, S. pombe; The legend says that some untagged Sir2 from self-proteolysis was present; source: E. coli Rosetta, purified (Ni-NTA, eluted with imidazole, Superdex); not shown: 6*His-Sumo, N-terminal, kept
Question: Does B5 bind [2]?
Answer: binds

B6: GST-Sad1_(1-169) (domain or fragment, S. pombe, UniProt Q09825 1-169, looked up)
chain: MFTNTPVGGKRERQNGAHPAWSTLGANSAQIHQNTADLASKMHKLRYTKIRSPPTRVSIESITPKQRFPAPNFEQAYHSNIRYEQEESDNEEFENVVKNGHEASTNVFYESDGDDEEFVNEEYENSIDEESDDEGYSLNEDTTATNASFRYPMNQRSTRKSQFYSSKFK
notes: pGEX-6P-1 vector; source: E. coli Rosetta, purified (glutathione Sepharose 4B, eluted with reduced glutathione, Superdex); not shown: GST, N-terminal, kept
Question: Does B6 bind (Clr3 (untagged))?
Answer: binds

B7: Sad1_(1-169) (domain or fragment, S. pombe, UniProt Q09825 1-169, looked up)
chain: MFTNTPVGGKRERQNGAHPAWSTLGANSAQIHQNTADLASKMHKLRYTKIRSPPTRVSIESITPKQRFPAPNFEQAYHSNIRYEQEESDNEEFENVVKNGHEASTNVFYESDGDDEEFVNEEYENSIDEESDDEGYSLNEDTTATNASFRYPMNQRSTRKSQFYSSKFK
notes: Cleavage is told in general for proteins not needed with their tag; used in ITC, SEC and MST; also called Sad1NTD; source: E. coli Rosetta, purified (glutathione Sepharose 4B, 3C digestion on beads, Superdex); not shown: GST, N-terminal, cleaved
Question: With B7 as the binder, how does the Kd [1] read?
Answer: 9.5 µM

Question: Does B7 bind (FITC labeled Clr3)?
Answer: binds

— PMC11109203 (Nature Communications, 2024)
